Here are results for 3 substances from publication PMC7824710.

In assay [1] the target is recombinant kinase domain of MKK7 (MKK7-KD), residues 101–405 (UniProt O14733). The assay can be described thus: other fluorescence titration; tryptophan fluorescence quenching at 334 nm; MKK7-KD at 1.25 µM in phosphate buffer pH 7.5, peptide 10 nM to 140 µM; fit log[inhibitor] vs. response, variable slope.
The target is the same in assay [2]. The experiment in a line: other fluorescence titration; FITC fluorescence quenching; FITC-labelled peptide at 10 nM titrated with soluble MKK7-KD 0-1000 nM; 96-well black plates, 200 µL, excitation 488 nm, emission at 517 nm; one-site total fit.

UniProt O14733, sequence (O14733 101-405): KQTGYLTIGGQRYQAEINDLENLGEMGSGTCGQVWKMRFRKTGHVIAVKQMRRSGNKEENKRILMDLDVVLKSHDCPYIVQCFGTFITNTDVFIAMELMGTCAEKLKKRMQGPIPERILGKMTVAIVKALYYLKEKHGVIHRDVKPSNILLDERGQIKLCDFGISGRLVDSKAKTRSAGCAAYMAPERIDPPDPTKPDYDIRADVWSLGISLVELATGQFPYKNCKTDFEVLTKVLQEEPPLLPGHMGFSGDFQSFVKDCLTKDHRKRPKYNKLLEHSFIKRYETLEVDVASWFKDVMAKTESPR

Usually Kd stands for a measure of binding affinity in units of concentration. Take “DTP3 (Ac-D-Tyr-D-Arg-D-Phe-NH2) (peptide)”: the Kd in assay [1] amounted to 240 nM.

In the case of FITC-βAla2-DTP3 (peptide), the Kd in assay [2] came out at 123 nM.

In the case of “scramble (SCRB) peptide (Ac-D-Arg-D-Phe-D-Tyr-NH2)”, in assay [1], the Kd amounted to 41000 nM and the Δ Fluorescence at 334 nm (at concentrations above 10 µM) came out at 4 units.
